Laboratory results taken from patent US20170066829A1 (published 2017).

Target: HER2 molecule (antigen of the affinity ELISA of FIG. 4) (UniProt P04626 23-652, limits assumed)
Test: ELISA with dilutions of HRP-conjugated Hersintuzumab, sigmoidal OD 450 nm curves

- Ka: 6e+08 M⁻¹
B1: Hersintuzumab (antibody, V domains shown)
VH: EVKLVESGGGLVKPGGSLRLSCATSGFSFSSYYMYWVRQAPGKRLEWVAYISSGSEIYYSDSVKGRFTISRDSAKNTLYLQMNSLRAEDTAVYYCARLGDDGMDVWGQGTTVTVSS
VL: DIVMTQSPSSLSASVGDRVTITCRASQNVRTAVAWFQQKPGKAPKALIYLASNRHTGVPDRFTGSGSGTEFTLTISNLQPEDFATYFCLQHNSYPLTFGGGTKVEIK
notes: also called humanized anti-HER2 antibody; humanized monoclonal anti-HER2 antibody
